Non-standard residues stand in square brackets, D forms with d. No end group written: not given here.
Assays:
[1] = target: T1, Aβ(1-42) oligomers (Homo sapiens, UniProt P05067); assay: Density gradient centrifugation combined with RP-HPLC: effect of active ingredient on size distribution of Aβ(1-42) aggregates; type: biochemical; conditions: for quantity of Aβ oligomers in fractions 4 to 6: co-incubation 40 min, vs control without active ingredient
T1 construct: 1 mg of lyophilized Aβ(1-42) (Bachem, Heidelberg); purchased Bachem, Heidelberg
Experimental: For the following examples of embodiments, only one ultracentrifuge and one HPLC system having a suitable separating column and a UV detector were required. In order to determine the reduction of the Aβ oligomer proportion in an aggregate mixture, pretreated and dried Aβ(1-42) peptide was dissolved in buffer and incubated until the greatest possible Aβ oligomer proportion was obtained. The active ingredient to be analyzed was then added to this oligomer-enriched sample.
1 mg of lyophilized Aβ(1-42) (Bachem, Heidelberg) was incubated, after being removed from the freezer, for 10 to 30 min at room temperature (RT) in order to equalize the temperature of the peptide pellet and of the surrounding environment and thus to avoid moisture condensing from the air. Thereafter, the Aβ peptide was dissolved in HFIP (1,1,1,3,3,3-hexafluoro-2-propanol) (Sigma-Aldrich, Taufkirchen) in a concentration of 1 mg/700 μl and incubated overnight at RT with shaking until full dissolution was achieved, in order to ensure that the Aβ(1-42) exists entirely as monomers at this point in time. The Aβ(1-42) was then aliquoted in an amount of 36 μg per Eppendorf vessel. To remove the HFIP, the aliquots were left to stand open under the extractor for approximately 30 min. The rotational vacuum concentrator (rotational vacuum concentrator RVC 2-18, Christ, Mainz-Mombach) was pre-cooled for approximately 30 min. The Aβ(1-42) aliquots were then dried for a further 30 min in the rotational vacuum concentrator so that the last HFIP residues could also evaporate off. The aliquoted, dried Aβ(1-42) was stored at −20° C. until use.
Prior to the experiment, one Aβ(1-42) aliquot was dissolved to 80 μM in 100 μl of 10 mM NaH2PO4/Na2HPO4 buffer (Sigma-Aldrich, Taufkirchen), pH 7.4 and incubated at RT for 6 h with shaking. The incubation time of 6 h was optimized for this specific Aβ from this specific company in order to ensure that the largest possible proportion of the Aβ exists as oligomers, so as to be able to measure the reduction thereof as unambiguously as possible. For other Aβ peptides from other manufacturers, the incubation time may vary and should/can be adapted accordingly.
Thereafter, the active ingredient candidate to be analyzed was added in a quantity of 10 or 20 μM. The co-incubation of the Aβ/active ingredient solution took place for 40 min at RT with continuous shaking. When no active ingredient was added (control), the Aβ solution was treated in the same way.
The samples were then layered onto a pre-formed density gradient (see Table 1). The gradient material used consisted of a 60% strength (w/v) iodixanol solution named Optiprep™ (Axis-Shield, Oslo, Norway). It is a dimeric compound of iohexol having the systematic name 5,5-[(2-hydroxy-1,3-propanediyl)-bis(acetylimino)]bis-[N,N′-bis(2,3-hydroxypropyl)-2,4,6-triiodobenzenedicarboxamide]. […]
The non-linear density gradient was centrifuged at 4° C. and 259,000×g in a TLS-55 swing-out rotor (Beckman-Coulter, Palo Alto, USA) for 3 h in a TL 100 ultracentrifuge (Beckman-Coulter, Palo Alto, USA). The density gradient is measured by refractometric determination of the iodixanol concentration in the individual fractions. An estimate of the size of sedimented protein particles based on the position in the gradient at the end of the centrifugation takes place on the basis of a calibration using marker proteins of known size and shape, which were analyzed under identical centrifugation conditions on the gradient. […]

[2] = test system: Aβ oligomers; conditions: according to what is presently known; cited from earlier work
[3] = test system: transgenic AD mice; conditions: oral administration with drinking water; cited from earlier work

T1 sequence (P05067 672-713): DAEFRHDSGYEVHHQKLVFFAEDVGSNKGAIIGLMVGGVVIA
Sequence of Aβ oligomers (P05067 672-711 limits assumed): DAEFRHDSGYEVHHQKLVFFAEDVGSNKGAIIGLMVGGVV

Row | Substance | quantity of Aβ oligomers in fractions 4 to 6 ([1]; 20 μM D3, 80 μM Aβ(1-42) pre-incubated 6 h) | proportion of large aggregates in fractions 11 to 14 ([1]; 20 μM D3, vs control without active ingredient) | effect on toxic Aβ oligomers (conversion into non-toxic, non-amyloidogenic, ThT-negative amorphous aggregates) [2] | cognitive capabilities of treated transgenic AD mice [3] | plaques in treated transgenic AD mice [3] | quantity of Aβ oligomers in fractions 4 to 6 ([1]; 10 μM D3D3, 80 μM Aβ(1-42) pre-incubated 6 h) | proportion of large aggregates in fractions 11 to 14 ([1]; 10 μM D3D3, vs control without active ingredient) | effect in eliminating oligomeric Aβ species compared with D3 ([1]; 10 μM D3D3 versus 20 μM D3)
1 | D3: D-enantiomeric peptide identified by mirror image phage display selection against predominantly monomeric Aβ(1-42); SEQ ID NO: 1 ([dR][dP][dR][dT][dR][dL][dH][dT][dH][dR][dN][dR]) | reduction in the quantity of oligomers | much greater | destroys the particularly toxic Aβ oligomers | significantly improved cognitive capabilities | considerably fewer plaques |  |  | 
2 | D3D3: tandem dimer of the D-peptide D3; SEQ ID NO: 2 ([dR][dP][dR][dT][dR][dL][dH][dT][dH][dR][dN][dR][dR][dP][dR][dT][dR][dL][dH][dT][dH][dR][dN][dR]) |  |  |  |  |  | reduction in the quantity of oligomers | much greater | much more pronounced effect
